From patent publication US20260000597A1 (priority 2018, published 2026) come the findings set out here.

This test addresses AchR (Homo sapiens, UniProt P02708). Nature of the test: ELISA of screened peptide phages on AchR versus streptavidin (OD450). The conditions noted are these: absorbance at 450 nm. The class given is binding. The method in brief: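 Reported as the ratio of AchR to streptavidin OD450, with TMB read-out after HRP anti-M13 detection. Wells coated with 5 μg/ml target overnight at 4 °C and BSA-blocked, then incubated 1 h at 30 °C with helper-rescued phage from individual plaques.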
Background: In an ELISA, binding on a coated surface is turned into a signal by an enzyme label.

Setting [1] is: ELISA of selected 14-mer (L3) peptide phages on AchR, Spep-2 positive control.
The mark [2] stands for this setting: phage ELISA, 5 μg/ml AchR, 4th and 5th round biopanning phages.
The mark [3] stands for this setting: ELISA of selected 11-mer (L2) peptide phages on AchR, Spep-2 positive control.

Chain of AchR (P02708 21-457): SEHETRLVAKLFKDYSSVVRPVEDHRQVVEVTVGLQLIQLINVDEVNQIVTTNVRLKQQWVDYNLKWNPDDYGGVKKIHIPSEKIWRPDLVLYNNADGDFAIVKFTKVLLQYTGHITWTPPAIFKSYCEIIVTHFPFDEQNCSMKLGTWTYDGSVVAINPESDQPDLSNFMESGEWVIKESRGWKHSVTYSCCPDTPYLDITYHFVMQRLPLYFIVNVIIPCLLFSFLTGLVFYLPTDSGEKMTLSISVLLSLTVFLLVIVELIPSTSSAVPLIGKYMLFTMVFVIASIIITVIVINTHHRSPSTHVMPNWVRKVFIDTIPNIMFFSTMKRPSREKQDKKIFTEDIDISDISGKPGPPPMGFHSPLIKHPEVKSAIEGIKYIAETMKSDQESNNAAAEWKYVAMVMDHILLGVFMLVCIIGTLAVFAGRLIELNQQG

Under setting [1], “L3-39 (DDVKQRKKHPRVQT; AchR binding peptide) [Peptide L3-39]” gave an OD of 0.654.
Substance KWKKMMER [Peptide L1-81] registered an OD under setting [2] of 0.63.
With “L2-147 (TWCKHKKLDMK; AchR binding peptide) [Peptide L2-147]”, the OD under setting [3] came out at 0.641.
“L3-99 (PCWKFRRAQMKWGI; AchR binding peptide) [Peptide L3-99]” had an OD under setting [1] of 0.692.
For the substance “L2-183 (TCDRARKESFR; AchR binding peptide) [Peptide L2-183]”, the OD under setting [3] amounted to 0.688.
For the substance KWRREGFK [Peptide L1-12], the OD under setting [2] is 0.691.
Regarding “L3-195 (IEDKSKRFNCKECG; AchR binding peptide) [Peptide L3-195]”, the OD under setting [1] stood at 0.7.
For “L2-55 (PACRSKRDWQK; AchR binding peptide) [Peptide L2-55]”, the OD under setting [3] turned out to be 0.524.
In turn, “L2-106 (QRWKWRKSLAR; AchR binding peptide) [Peptide L2-106]” gave an OD under setting [3] of 0.926.
On to KAKKIRQR [Peptide L1-1], for which the OD under setting [2] is on record as 0.693.
Same read-out and setting: to RYRRWFYR [Peptide L1-155] belongs 0.618.
On to RAKKCYHK [Peptide L1-50], for which the OD under setting [2] is recorded as 0.583.
Same read-out and setting: to RHKRMLWR [Peptide L1-131] belongs 0.505.
In turn, KDRKGVYK [Peptide L1-111] displayed an OD under setting [2] of 0.608.
In turn, “L3-70 (DHERERRLWSRFPF; AchR binding peptide) [Peptide L3-70]” had an OD under setting [1] of 0.781.
Same read-out and setting: to “L3-157 (CMLRWKRWHMRFNP; AchR binding peptide) [Peptide L3-157]” belongs 0.731.
For the substance “L2-142 (DNPRFRKTILK; AchR binding peptide) [Peptide L2-142]”, the OD under setting [3] is reported as 0.512.
In turn, RHRKYVDK [Peptide L1-152] displayed an OD under setting [2] of 0.484.
Under setting [3], “L2-181 (PGARCRKQDVK; AchR binding peptide) [Peptide L2-181]” returned an OD of 0.749.
KHKKQNVR [Peptide L1-18] returned an OD under setting [2] of 0.627.
“L2-1 (EDYKYRRQNYK; AchR binding peptide) [Peptide L2-1]” yielded an OD under setting [3] of 0.705.
Same read-out and setting: with “L2-123 (HDTKCKKMYAK; AchR binding peptide) [Peptide L2-123]” the figure was 0.473.
With RGRKKCGK [Peptide L1-42], the OD under setting [2] came out at 0.695.
“L2-97 (DVNKYRKHSHK; AchR binding peptide) [Peptide L2-97]” showed an OD under setting [3] of 0.531.
Take “L3-125 (MQEKCRRCVFKGNI; AchR binding peptide) [Peptide L3-125]”: under setting [1], the OD is 0.629.
The substance “L2-29 (AILKGKRIPNK; AchR binding peptide) [Peptide L2-29]” came in with an OD under setting [3] of 0.756.
Turning to RIKRNNCK [Peptide L1-130], the OD under setting [2] turned out to be 0.368.
Substance “L2-188 (CLWRLRKDNGR; AchR binding peptide) [Peptide L2-188]” showed an OD under setting [3] of 0.73.
RIRRVSQR [Peptide L1-60] registered an OD under setting [2] of 0.484.
Regarding “L2-15 (HTTRGKRCDPR; AchR binding peptide) [Peptide L2-15]”, the OD under setting [3] was 0.705.
On the same count and under the same terms, to “L2-194 (HLEKHRRCEFK; AchR binding peptide) [Peptide L2-194]” belongs 0.693; to “L2-31 (NNSRSKRFMNR; AchR binding peptide) [Peptide L2-31]”, 0.737; to “L2-196 (QNMRMKRFIQR; AchR binding peptide) [Peptide L2-196]”, 0.574.
With RIRRWWVR [Peptide L1-82], the OD under setting [2] is listed as 0.596.
Turning to “L2-28 (CIWKSKRSPAK; AchR binding peptide) [Peptide L2-28]”, the OD under setting [3] is 0.762.
Turning to “L2-169 (HDPRHKKTPTK; AchR binding peptide) [Peptide L2-169]”, the OD under setting [3] was 0.733.
As for “L3-30 (WAHKCKKPGQRIPP; AchR binding peptide) [Peptide L3-30]”, the OD under setting [1] came to 0.771.
Take “L3-187 (HGHKPRRWIYRMPM; AchR binding peptide) [Peptide L3-187]”: under setting [1], the OD is listed as 0.731.
Regarding “L2-156 (YGLRMRKWYMK; AchR binding peptide) [Peptide L2-156]”, the OD under setting [3] is 0.683.
As for KQKKTGFR [Peptide L1-55], under setting [2], the OD is on record as 0.585.
Take KTKRVDPK [Peptide L1-102]: the OD under setting [2] is 0.507.
On to “L2-57 (LEHKERKDDFR; AchR binding peptide) [Peptide L2-57]”, for which the OD under setting [3] stood at 0.795.
Turning to RARKLHNR [Peptide L1-103], the OD under setting [2] turned out to be 0.55.
On the same count and under the same terms, with KGKKLSQR [Peptide L1-75] the figure was 0.581.
On to “L2-165 (AYPKFRKTFNR; AchR binding peptide) [Peptide L2-165]”, for which, under setting [3], the OD came out at 0.718.
Same read-out and setting: with “L2-80 (FWDRVKRNPSK; AchR binding peptide) [Peptide L2-80]” the figure was 0.685.
In turn, RGKRQLGR [Peptide L1-3] had an OD under setting [2] of 0.649.
In turn, “L3-110 (AWAKYKKVQPKHHT; AchR binding peptide) [Peptide L3-110]” gave an OD under setting [1] of 0.538.
KPKREMHK [Peptide L1-79]: the OD under setting [2] was 0.583.
Under setting [3], “L2-45 (WIYRGRKDVAK; AchR binding peptide) [Peptide L2-45]” displayed an OD of 0.584.
Still for that read-out and setting: with “L2-139 (SVLRCRKCSMK; AchR binding peptide) [Peptide L2-139]” the figure was 0.528.
Substance “GGGRRRRRRRR [Peptide L2-204, reference compound]” gave an OD under setting [2] of 0.311.
With “L2-35 (NFTKLRKPGPR; AchR binding peptide) [Peptide L2-35]”, the OD under setting [3] was 0.683.
For RTKKAYVK [Peptide L1-200], the OD under setting [2] stood at 0.621.
Take “L3-13 (YCTRIRREGMKGSE; AchR binding peptide) [Peptide L3-13]”: the OD under setting [1] is given as 0.862.
Under setting [3], “L2-56 (FICKSRKFYGK; AchR binding peptide) [Peptide L2-56]” had an OD of 0.713.
With “L3-12 (DPPKKRKSLLRRVS; AchR binding peptide) [Peptide L3-12]”, the OD under setting [1] was 0.882.
On the same count and under the same terms, to “L3-36 (AFSRIKRGVLKLLS; AchR binding peptide) [Peptide L3-36]” belongs 0.787.
The substance RVRRDGHR [Peptide L1-49] showed an OD under setting [2] of 0.504.
The same measure, in the same setting: to KARKQEVR [Peptide L1-188] belongs 0.618; to KMRRWWLK [Peptide L1-190], 0.644; to KVKRLPYR [Peptide L1-146], 0.362.
“L2-79 (EGAKYRRDGWR; AchR binding peptide) [Peptide L2-79]” gave an OD under setting [3] of 0.689.
In the case of KGKRTGCK [Peptide L1-126], the OD under setting [2] amounted to 0.362.
Under setting [1], “L3-25 (CFQRKRKSLLRVLR; AchR binding peptide) [Peptide L3-25]” gave an OD of 0.807.
Same read-out and setting: with “L3-154 (ENIKSRKYFVKLTW; AchR binding peptide) [Peptide L3-154]” the figure was 0.766.
With “L2-101 (NGVRERKWQSK; AchR binding peptide) [Peptide L2-101]”, the OD under setting [3] is 0.592.
Consider “L3-143 (QTMKFKRCCNKEMV; AchR binding peptide) [Peptide L3-143]”, for which, under setting [1], the OD turned out to be 0.559.
In turn, “L2-61 (PTIRVRKSDDR; AchR binding peptide) [Peptide L2-61]” came in with an OD under setting [3] of 0.688.
For “L3-6 (EFVKLRKARLRGPQ; AchR binding peptide) [Peptide L3-6]”, the OD under setting [1] came to 0.77.
For the substance “L2-76 (PWVRIRKMASR; AchR binding peptide) [Peptide L2-76]”, under setting [3], the OD is recorded as 0.725.
Regarding “L3-67 (VTWKFRKAEKRWGY; AchR binding peptide) [Peptide L3-67]”, under setting [1], the OD came to 0.786.
Under setting [2], RHKKSPWK [Peptide L1-5] gave an OD of 0.657.
“L3-53 (HCLRTKKLINKICS; AchR binding peptide) [Peptide L3-53]” showed an OD under setting [1] of 0.679.
As for RYKKQQYK [Peptide L1-167], the OD under setting [2] came out at 0.581.
In turn, “L2-52 (LPSRPKKPVPK; AchR binding peptide) [Peptide L2-52]” came in with an OD under setting [3] of 0.624.
In turn, KNRRADCR [Peptide L1-140] registered an OD under setting [2] of 0.381.
“L2-200 (QGMKLKRIWSK; AchR binding peptide) [Peptide L2-200]”: the OD under setting [3] stood at 0.744.
Substance KMRKHDVR [Peptide L1-74] yielded an OD under setting [2] of 0.649.
With KWRRNGQR [Peptide L1-98], the OD under setting [2] was found to be 0.54.
Under setting [1], “L3-167 (AMCREKRFPYRAIY; AchR binding peptide) [Peptide L3-167]” registered an OD of 0.634.
Consider RYKKVPAK [Peptide L1-118], for which the OD under setting [2] is on record as 0.471.
Under setting [3], “L2-135 (FPGKNRKYCSR; AchR binding peptide) [Peptide L2-135]” gave an OD of 0.557.
On to “L3-135 (NDHRMRRSVDRGET; AchR binding peptide) [Peptide L3-135]”, for which the OD under setting [1] is 0.69.
Still for that read-out and setting: to “L3-160 (LTSRCKKTFQKNSE; AchR binding peptide) [Peptide L3-160]” belongs 0.792.
Turning to “L2-192 (EHVKLKRLDFR; AchR binding peptide) [Peptide L2-192]”, the OD under setting [3] came to 0.685.
Turning to “L3-101 (QPWRQKKFWCRCWG; AchR binding peptide) [Peptide L3-101]”, the OD under setting [1] is 0.758.
In turn, “L2-167 (MFMRNKKLAWR; AchR binding peptide) [Peptide L2-167]” came in with an OD under setting [3] of 0.584.
